# Data published in patent US20190241654A1 (published 2019).
# Values joined by “and” are separate entries in the source; they are usually repeats but may differ in a detail not shown here. Identical values can stand only once.
# Biological target: T1, recombinant extracellular domain of CD47 (UniProt Q08722 19-139, limits assumed)
# T1 construct: extracellular domain; Analyte flowed over the captured antibodies in SPR; also called CD47-ECD
# Experiment: SPR; antibody captured on anti-human Fc, CD47-ECD flowed 0-100 nM; 1:1 Langmuir
# Protocol: The binding kinetics of anti-CD47 antibodies to the recombinant extracellular domain of CD47 were determined by using surface Plasmon resonance (SPR, MASS-1, Sierra Sensors; T200, Biacore, GE Healthcare Life Sciences). Anti-human Fc (P/N: BR-1008-39 (GE Healthcare Life Sciences)) was immobilized on a High Capacity Amine chip (P/N: SPR-AS-HCA, Sierra sensors) or CM5-S Chip (GE Healthcare Life Sciences). CD47 antibodies were captured on Human IgG FC and CD47-ECD was flowed over the surface at various concentrations ranging from zero (for double referencing) to 100 nM. In order to determine KD's, antibodies were ranked using a 1:1 Langmuir model.
# T1 sequence (Q08722 19-139 limits assumed): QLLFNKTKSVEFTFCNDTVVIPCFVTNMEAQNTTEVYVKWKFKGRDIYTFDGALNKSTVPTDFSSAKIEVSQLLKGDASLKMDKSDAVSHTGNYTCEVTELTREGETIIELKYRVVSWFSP
Binder,Kd,koff,kon
"Ab356/Ab1122 (antibody, V domains shown, FR and CDR L2 variant; Label printed HC first; r445 used; also called HC Ab356 / LC Ab1122) VH: QMQLVQSGAEVKKPGSSVKVSCKASGFNIKDYYLHWVRQAPGKGLEWMGWIDPDQGDTEYAQKFQGRVTITRDRSTSTAYMELRSLRAEDTAVYYCNAAYGSSSYPMDYWGQGTTVTVSS VL: NIQMTQSPSSLSASVGDRVTITCRASQDIHRYLSWFQQKPGKVPKHLIYRYERFVDGVPSRFSGSGSGTEFTLTISSLQPEDFATYYCLQYDEFPYTFGGGTKVEIK",77.9 nM,0.00411 s⁻¹,22800 M⁻¹ s⁻¹
"Ab480/Ab1127 (antibody, V domains shown, FR and CDR L2 variant; Label printed HC first; r460 used; also called HC Ab480 / LC Ab1127) VH: QMQLVQSGAEVKKPGSSVKVSCKASGFNIKDYYLHWVRQAPGKGLEWMGWIDPDQGDTEYAQKFQGRVTITRDRSTSTAYMELRSLRAEDTAVYYCNAAYGSSSYPMDYWGQGTLVTVSS VL: NIQMTQSPSSLSASVGDRVTITCRASQDIHRYLSWFQQKPGKVPKHLIYRESRFVDGVPSRFSGSGSGTEFTLTISSLQPEDFATYYCLQYDEFPYTFGGGTKVEIK",2.42 nM,0.00622 s⁻¹,2.57e+06 M⁻¹ s⁻¹
"Ab356/Ab1127 (antibody, V domains shown, FR and CDR L2 variant; Label printed HC first; r460 used; also called HC Ab356 / LC Ab1127) VH: QMQLVQSGAEVKKPGSSVKVSCKASGFNIKDYYLHWVRQAPGKGLEWMGWIDPDQGDTEYAQKFQGRVTITRDRSTSTAYMELRSLRAEDTAVYYCNAAYGSSSYPMDYWGQGTTVTVSS VL: NIQMTQSPSSLSASVGDRVTITCRASQDIHRYLSWFQQKPGKVPKHLIYRESRFVDGVPSRFSGSGSGTEFTLTISSLQPEDFATYYCLQYDEFPYTFGGGTKVEIK",4.76 nM,0.0106 s⁻¹,2.22e+06 M⁻¹ s⁻¹
"Ab495/Ab480 (antibody, V domains shown, also called LC Ab495 / HC Ab480) VH: QMQLVQSGAEVKKPGSSVKVSCKASGFNIKDYYLHWVRQAPGKGLEWMGWIDPDQGDTEYAQKFQGRVTITRDRSTSTAYMELRSLRAEDTAVYYCNAAYGSSSYPMDYWGQGTLVTVSS VL: NIQMTQSPSSLSASVGDRVTITCKASQDIHRYLSWYQQKPGKAPKHLIYRANRLVSGVPSRFSGSGSGTEFTLTISSLQPEDFATYYCLQYDEFPYTFGGGTKVEIK",1.32 nM,0.00434 s⁻¹,3.29e+06 M⁻¹ s⁻¹
"Ab1119/Ab387 (antibody, V domains shown, Variant of AbParental; also called LC Ab1119 / HC Ab387) VH: QMQLVQSGAEVKKPGSSVKVSCKASGFNIKDYYLHWVRQAPGKGLEWMGWIDPDQGDTEYAQKFQGRVTITRDRSTSTAYMELRSLRSEDTAVYYCNAAYGSSSYPMDYWGQGTLVTVSS VL: NIQMTQSPSSLSASVGDRVTITCRASQDIHRYLSWFQQKPGKVPKHLIYRANRLVSGVPSRFSGSGSGTEFTLTISSLQPEDFATYYCLQYDEFPYTFGGGTKVEIK",0.556 nM and 0.529 nM,0.00571 s⁻¹ and 0.00552 s⁻¹,1.03e+07 M⁻¹ s⁻¹ and 1.04e+07 M⁻¹ s⁻¹

# The remaining binders from weak to strong by Kd, led by results:
Kd,koff,kon,Binder
1.14 nM,0.00303 s⁻¹,2.67e+06 M⁻¹ s⁻¹,"Ab480/Ab1121 (antibody, V domains shown, FR and CDR L2 variant; Label printed HC first; r442 used; also called HC Ab480 / LC Ab1121) VH: QMQLVQSGAEVKKPGSSVKVSCKASGFNIKDYYLHWVRQAPGKGLEWMGWIDPDQGDTEYAQKFQGRVTITRDRSTSTAYMELRSLRAEDTAVYYCNAAYGSSSYPMDYWGQGTLVTVSS VL: NIQMTQSPSSLSASVGDRVTITCRASQDIHRYLSWFQQKPGKVPKHLIYRYIRFVDGVPSRFSGSGSGTEFTLTISSLQPEDFATYYCLQYDEFPYTFGGGTKVEIK"
1.05 nM,0.00238 s⁻¹,2.28e+06 M⁻¹ s⁻¹,"Ab480/Ab1120 (antibody, V domains shown, FR and CDR L2 variant; Label printed HC first although the head says LC/HC; also called HC Ab480 / LC Ab1120) VH: QMQLVQSGAEVKKPGSSVKVSCKASGFNIKDYYLHWVRQAPGKGLEWMGWIDPDQGDTEYAQKFQGRVTITRDRSTSTAYMELRSLRAEDTAVYYCNAAYGSSSYPMDYWGQGTLVTVSS VL: NIQMTQSPSSLSASVGDRVTITCRASQDIHRYLSWFQQKPGKVPKHLIYRYVRFVDGVPSRFSGSGSGTEFTLTISSLQPEDFATYYCLQYDEFPYTFGGGTKVEIK"
1.02 nM,0.00274 s⁻¹,2.69e+06 M⁻¹ s⁻¹,"Ab356/Ab1120 (antibody, V domains shown, FR and CDR L2 variant; also called HC Ab356 / LC Ab1120) VH: QMQLVQSGAEVKKPGSSVKVSCKASGFNIKDYYLHWVRQAPGKGLEWMGWIDPDQGDTEYAQKFQGRVTITRDRSTSTAYMELRSLRAEDTAVYYCNAAYGSSSYPMDYWGQGTTVTVSS VL: NIQMTQSPSSLSASVGDRVTITCRASQDIHRYLSWFQQKPGKVPKHLIYRYVRFVDGVPSRFSGSGSGTEFTLTISSLQPEDFATYYCLQYDEFPYTFGGGTKVEIK"
0.553 nM,0.00549 s⁻¹,9.93e+06 M⁻¹ s⁻¹,"Ab482/Ab387 (antibody, V domains shown, FR variant of AbParental; also called LC Ab482 / HC Ab387) VH: QMQLVQSGAEVKKPGSSVKVSCKASGFNIKDYYLHWVRQAPGKGLEWMGWIDPDQGDTEYAQKFQGRVTITRDRSTSTAYMELRSLRSEDTAVYYCNAAYGSSSYPMDYWGQGTLVTVSS VL: NIQMTQSPSSMSASVGDRVTITCKASQDIHRYLSWFQQKPGKVPKHLIYRANRLVSGVPSRFSGSGSGTEFTLTISSLQPEDFATYYCLQYDEFPYTFGGGTKVEIK"
